Measurements taken from the supplement of paper PMC10724198.
± gives the standard deviation of the averaged measurements.

Test system: Saccharomyces cerevisiae
Assay: protein stability index of tFT-peptide fusion (C-terminal peptide) (PSI (0-1 scale)); higher = more stable (slower turnover)
Conditions: genetic background: wild type; temperature: 30 C
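Also: PSI is a weighted mean of sequencing reads over stability bins, variants kept only with over 10 reads, mCherry proximal and sfGFP distal, peptide attached via GGGS linker.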

Sequence | protein stability index
DPLKSFDAVRQD | 0.617 ± 0.06
ARNMGLFVFNLR | 0.6783 ± 0.0043
APSSPPPPTLPP | 0.716 ± 0.17
PPSLLPSPPRLF | 0.667 ± 0.057
AHPPPPPPPPAP | 0.677 ± 0.14
KERQERGKRKII | 0.536 ± 0.035
RVRGEHKLIGRA | 0.652 ± 0.034
NKDGIKKKKYNK | 0.668 ± 0.032
PPPFRTPPSRRP | 0.739 ± 0.057
HLIVPESVVHDL | 0.747 ± 0.18
SPGLLPLALFSL | 0.678 ± 0.14
EGDIFSGFPSFQ | 0.741 ± 0.065
SISYCSAFGGID | 0.69655 ± 7.1e-05
FRLPPRPPLTIP | 0.6726 ± 0.0062
PPQLHVALPHPE | 0.852 ± 0.2
LPPPPTAPPPSR | 0.719 ± 0.058
GSCGWCGVARWG | 0.762 ± 0.05
KIKKKKKNKTNR | 0.676 ± 0.014
PPTPPPRPLQLP | 0.652 ± 0.0076
DCGYPESTGTAF | 0.656 ± 0.036
PGSFDLSDLAFA | 0.707 ± 0.073
EKKKQKHKKKKN | 0.706 ± 0.031
PRPVRPSPHPPP | 0.689 ± 0.1
GGIRGEGEVGKR | 0.69 ± 0.021
GPPPPSPRPTRR | 0.723 ± 0.031
CRWLAKRVKDSS | 0.629 ± 0.04

Sequence | protein stability index
PPPPPPPPTTVL | 0.709 ± 0.023
STRGGLCFLRWV | 0.5543 ± 0.0019
GWRVVWAVCGHF | 0.597 ± 0.092
NINITQNVKNIK | 0.716 ± 0.06
FCCTPAPVPPST | 0.689 ± 0.016
PAPPPPPLPPPP | 0.615 ± 0.041
WELVYLASLVQQ | 0.666 ± 0.055
ELDFFIGYGVFC | 0.626 ± 0.0082
IECKKIDKKIKE | 0.688 ± 0.035
SAAVLRWLASAG | 0.683 ± 0.059
GEVKRSLGQVRG | 0.695 ± 0.007
PRSPHPLPPTPP | 0.666 ± 0.0084
LPPPSLPGPSAS | 0.786 ± 0.059
DRPTPPPRSSPL | 0.739 ± 0.058
PPPSDPLPPSVR | 0.7044 ± 0.0067
FLSPPSPWPSFP | 0.688 ± 0.059
ALSEAITLPVNP | 0.674 ± 0.085
PPPPNPPRPSSR | 0.758 ± 0.026
TGMYHSQPYPAA | 0.677 ± 0.0071
VPRAVACDCVLL | 0.6845 ± 0.0051
MVELWQPASVFS | 0.663 ± 0.033
SLLSSSALTASP | 0.65 ± 0.043
DLLKFGPKVLHL | 0.6592 ± 0.0023
PPHPPLPPPSPS | 0.704 ± 0.056
HKKATRPPTGGN | 0.604 ± 0.052
FLPPPLAAPFLF | 0.669 ± 0.059

Sequence | protein stability index
TTKTGQVEIYKV | 0.661 ± 0.033
ASLIGHLKATSP | 0.672 ± 0.014
LVRCPLGVPGAS | 0.7085 ± 0.0065
ANKKKKKIKTKH | 0.757 ± 0.12
GEYYKRKMNGSK | 0.718 ± 0.11
GGGLGAGWGVWG | 0.68 ± 0.035
RERPHSDYLACH | 0.691 ± 0.026
RWGGVVRGCSGG | 0.687 ± 0.036
PLSTPLSPALLS | 0.602 ± 0.023
KMILVGMKKSVV | 0.6502 ± 0.0026
KKKKDKEIIHKE | 0.758 ± 0.12
RVSACVDGHVFL | 0.643 ± 0.0071
PLSPAPPRPPPP | 0.621 ± 0.023
AAIFDSIRKDLR | 0.69 ± 0.039
RPALRPSPPLSP | 0.682 ± 0.056
LVEEGKKLTSKF | 0.711 ± 0.078
GVLHPPARPPPL | 0.654 ± 0.024
PLPPHRLPNPRL | 0.784 ± 0.011
KKNSTKKKKESW | 0.633 ± 0.029
GARRGVSERSPA | 0.647 ± 0.041
GRGGGRGVGVVG | 0.6345 ± 0.0028
GEGVPVWNQCVE | 0.658 ± 0.0091
SPPPAPPPPPQT | 0.66492 ± 0.00031
STPFALVFLPFP | 0.688 ± 0.034
KKKKKKVKNTKE | 0.698 ± 0.047
SHAAKRYNHPHS | 0.7333 ± 0.00094

Sequence | protein stability index
VLGKIIKLSTYS | 0.629 ± 0.059
EKSNQKSRRNSR | 0.638 ± 0.15
PTPLCPPLAVRL | 0.691 ± 0.032
RPTLPGGSPYYS | 0.75 ± 0.05
RSHPRQSGLRTA | 0.652 ± 0.039
PTGPPPPSLGPP | 0.694 ± 0.021
VFLRGWGRSEGG | 0.679 ± 0.012
FLQAKSQGEHFR | 0.694 ± 0.012
RVANCGDGSIAV | 0.652 ± 0.053
VNGLVLFEYLMV | 0.579 ± 0.029
NAKGRKQTGKRK | 0.695 ± 0.035
VWLGTGGSYGFC | 0.825 ± 0.16
PPCFPHPLPPPR | 0.744 ± 0.022
KTKKRHKENRKE | 0.791 ± 0.067
VLSLLPFSPFSP | 0.735 ± 0.096
VLIAIIRYGPYT | 0.538 ± 0.0021
LRIQKIVSGALM | 0.707 ± 0.01
PAAPLPPTPPPP | 0.708 ± 0.0082
AKKTKSRANSDL | 0.701 ± 0.085
SLFSPSQLQSFS | 0.718 ± 0.012
AGTALVFNGSKA | 0.7209 ± 0.0045
KIKVKTKKWNIK | 0.681 ± 0.018
FLLVLVPFCALF | 0.547 ± 0.11
